Data from the supplement of paper PMC12764529.
± gives the half width of the 95% confidence interval.

Test: folding stability dG unfold from trypsin proteolysis; higher = more stable
In short: (§1)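 Designed mini-proteins (under 80 residues, no cysteine) in a PA-tagged cDNA display construct were digested with trypsin and chymotrypsin. Each protease was used at 11 concentrations (threefold dilutions) plus a no-protease condition, followed by sequencing. K50 was inferred by Bayesian fitting of sequencing counts, and unfolding free energy was derived against a sequence-predicted unfolded-state K50 and a shared folded-state K50, per protease or combined. Only designs with AlphaFold2 dimer inter-PAE above 15 were kept.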

In order of rising “folding stability dG unfold” value:
1. SAGGSAGGSAGSPDRPRRVEPVPVVTYKDPDLGKEFTSPEEIEKTKEELEKKGLSVEVSASAGGSAGGSAGG [r17_289_JUSTAS]  -0.209 ± 0.13 kcal/mol
2. SAGGSAGGSGDKDEVDPNKNISPIPPVKATIFPPDGTPRTVTFTSEEELKAYAEARGWTIEVPSAGGSAGGS [r12_244_JUSTAS]  0.000698 ± 0.12 kcal/mol
3. SAGGSAGGSAGGRLVVFEVKKDELNITGPGEARVVSVEELPGDRVRVVVEVPEGAVPGLASAGGSAGGSAGG [r17_48_TrMRF]  0.324 ± 0.084 kcal/mol
4. SMVVVKVTASSPEEAEALAKEAEEKLKEEIEKKIKELKKKGINPKELNLNIKIEIETLSYDPANPGKNTPSA [r9_961_JUSTAS]  0.484 ± 0.039 kcal/mol
5. SSPALDEKYTAKVDAKVTSPEGKPLATFTIDVLTEEEAKKKIEEFVKELAEKLGRPDLPVTISNITIERVSA [r9_376_JUSTAS]  0.519 ± 0.077 kcal/mol
6. SAGGSAGGSMIKRTVTVTVYFPGKPLSIPVEYTSEEELPVVAEEAVKPIIEKVPEYKIPEPKLSAGGSAGGS [r12_230_JUSTAS]  0.529 ± 0.21 kcal/mol
7. SAGGSAGGSAGGSKKKKIIIVVPKEELSEEQIKALKDLGYEIEIVEVEKKPVKVKKKKKSAGGSAGGSAGGS [r4_294_TrROS_Hall]  0.62 ± 0.068 kcal/mol
8. SAGGKPLEPKIEVEVIPLPSGERVITLRVEVPPNDPLKIKFPGLKKEVEFPGDDEVEFRVVVPPDSFSAGGS [r16_56_TrMRF]  0.662 ± 0.1 kcal/mol
9. SAGGSAGGSAGGSMLVELDENGKTLTIYDEETQELIEVEVEPAPPVEETVTEVSEEELKSAGGSAGGSAGGS [r4_56_TrROS_Hall]  0.666 ± 0.098 kcal/mol
10. SAGGSAIIIPIKSAEEILDQLENNPPGRPIHVWAPDGYWIKIEIDPGKGPKIKITEIYPMPPEEAKSAGGSA [r15_577_TrROS]  0.741 ± 0.026 kcal/mol
11. SMEEAIEEAIKKNEEAIAAGGGPVKVELEVPGYRIDLTFSPNGLKITNIEEKNSPDGIPSVKSTSDVPPPSA [r9_308_JUSTAS]  0.845 ± 0.085 kcal/mol
12. SAGGSAPPPGSTQVIVVEKRDAPPEEAAQEIADEIKEKYPNTSVEVQEEEVPPGEPVVRVTVYIPPSAGGSA [r15_916_JUSTAS]  0.845 ± 0.14 kcal/mol
13. SAGGPEELELTLSIDYPDLTPEQAAEEARRLLEGLGFEVKEIPVTVEPGPGKVTVRARVTVLPPEERSAGGS [r16_287_TrMRF]  0.859 ± 0.12 kcal/mol
14. SAGGSAGGSADKIPVKIKVKLKDGDKEYEVTVTVTLDVNDPNLDAFAKELASSGKIEEVEASAGGSAGGSAG [r3_30_TrMRF]  0.877 ± 0.072 kcal/mol
15. SAGGSAKWELSIWIPAPGMTPDKARELARDIAREFAQPGWKVKDIEVEPVNPDENVYRGTVTIEPPSAGGSA [r15_96_TrROS]  0.951 ± 0.04 kcal/mol
16. SAGGSAGGSAGSMSVTLSTTVEVTVEPLPDYTIVTVTTTTTFPDGSTTTTVTTTPVPPDLGSAGGSAGGSAG [r3_330_JUSTAS]  0.957 ± 0.24 kcal/mol
17. SAGGSAMPEDTPFVVTKTTEYRLPDGSRVTFEPVPETGKTLVTFTPPDGSSERVWLTPEEAEKLLASAGGSA [r15_2_JUSTAS]  1.11 ± 0.02 kcal/mol
18. SAGGSAGGDYERDPNNGKMKMKPKVEPPPPPKIIQIQIPFPEEADDFMNELQDNGYPIYLSPGGSAGGSAGG [r6_872_TrROS]  1.29 ± 0.18 kcal/mol
19. SAGGSAGGMTFVDLGEDKPVVIEVPPRPETGLYPVVIHPPEKPVFVEVESPEEAIEAAEKLVEGSAGGSAGG [r6_715_TrMRF]  1.42 ± 0.051 kcal/mol
20. SAGGSAGGSPRVLEIRRYPLPDGGYLLEVRFEKETLFIPVPENVPPHSLEEIEIPLLLGEKPESAGGSAGGS [r12_673_TrMRF]  1.49 ± 0.022 kcal/mol
21. SAPPTVKINWERVRRNGKRYYMIRVEITHPNNGKEREHTFMYDDPEDFLDNLLKLPNIDRVEIEDIYPMSAG [r14_464_TrROS]  1.64 ± 0.27 kcal/mol
22. SAGGSAGDKVVTVTATFTTTDPNGNEITIIAPITFLNGEGTAVIDAKAFNPTGELIAEATITVPIGSAGGSA [r15_967_TrMRF]  1.69 ± 0.057 kcal/mol
23. SAGGMIVLEFPDGKIVFVEPVSEFTTPDGKKVRLVKVIVTDPLTGKSTIIEREVLPGGGVKEKVTPESAGGS [r16_651_JUSTAS]  1.89 ± 0.042 kcal/mol
24. SAGGSMRFKIEDINIGIIPHPPGWLLIPITVKVKFEEPDPDNGEPKTVEHEFPIMIMMPKDDLDDLSAGGSA [r2_184_TrROS]  2.01 ± 0.072 kcal/mol
25. SAMKITIEVIKLPDGYYVVRITVYDKNGEKVEERELVFSSLEDLLAALKELFPDQKVTVEIRKVTKEELSAG [r14_964_TrROS_Hall]  2.16 ± 0.16 kcal/mol
26. SAGGSAGGKKNNKPKPILVKIEIINKNGKKKVFTKEFKSLEEAKKFIEKALPKGYSAKIEIIPGSAGGSAGG [r6_289_TrMRF]  2.25 ± 0.2 kcal/mol
27. SAGGSAGGSAGKIEIKVVKKTPNYVYYEIRFEETKKTIIVKAKSKEDAEEAAKKLLKELKSAGGSAGGSAGG [r11_848_TrROS_Hall]  2.31 ± 0.099 kcal/mol
28. SAGGSAGGSAGGMPPFVELEFVGEFKVNGEKVLVLRLPDGSIRIVNLKTGETITVPASLLSAGGSAGGSAGG [r7_28_JUSTAS]  2.33 ± 0.048 kcal/mol
29. SAGMTQTLEVSGPSVKVTLTVAPDGSVTITTTDPNGNTTTTSLYVPPGVPVTIPLPFGGTTITATVTPASAG [r5_237_JUSTAS]  2.38 ± 0.087 kcal/mol
30. SAGGSVTTETDEYFYPDNLFTVAKTTLYVGSGPVEATAVSYPTFTLVNVHYPDGSVDTFLFTLTDDSSAGGS [r16_108_TrMRF]  2.38 ± 0.11 kcal/mol
31. SAGAKEITAEELAEIVREFAAALPPDVKEPVTVEITVPLEDGRVLVFKVTVERSPDGVKATVEVSPGASAGG [r19_220_TrMRF]  2.4 ± 0.13 kcal/mol
32. SAYIQIERDPDGYIKIEVWFDSPDEGKEFVKEFVKELADQGLDIKIKVTKIEPYPGDPNMYRVSYTIKVSAG [r14_119_TrROS]  2.76 ± 0.098 kcal/mol
33. SAGGKKPKIEVKIEFDEETGKLRIEIRTEDGKLIAEKEIEIDGVLFKVKVIVKDGKLVIEIEAFPKKSAGGS [r16_631_TrROS_Hall]  2.79 ± 0.15 kcal/mol
34. SAKEELYIIEIKVYVDGKEVKTITKVITVPEEKLEEKLKELLKKLAEELGLEIKKVEVKIKKLSLEELKSAG [r14_104_TrROS_Hall]  2.79 ± 0.22 kcal/mol
35. SMIEELSDEEKVALAKELAEEIKKAREGGKPEEIPELIKRLKEVLEAASPPVQEEVLALIKEIKIPPKELSA [r9_182_JUSTAS]  2.82 ± 0.065 kcal/mol
36. SAGGSAGGSAMTTTSTSTYPDSITTTTTTTVDGTYIITTTTFYPATGTTTTTTTTLPPSLTSAGGSAGGSAG [r3_316_JUSTAS]  2.91 ± 0.093 kcal/mol
37. KMEIKIEVEKVKDEETGEEYIEVKIVVKKENVEEALEKVKKILEEEFNYEIVDVKVEKKDDYVVITVKIRLS [r1_337_TrROS_Hall]  3.15 ± 0.22 kcal/mol
38. SAGGKKTVKIEIVLPKEELEELLKKLLEEAKKKGLKVEVKVELKEVEVEVNGKKKKVLVLKVEIKVEPSAGG [r13_974_TrROS_Hall]  3.17 ± 0.12 kcal/mol
39. SAGGSAGGSAGNLKVVDISIWRTDDMRYIMFKLEGDGLTIMIWVPPKEPGKIQIMIFPLDSAGGSAGGSAGG [r11_1046_TrROS]  3.49 ± 0.23 kcal/mol
40. SAGGSAGGLPEGDIYRIRVTLPNGNTFTITFPVKSVEQAKDFAKSFLESLGLPDVKVDIEPVPVSAGGSAGG [r6_844_TrROS]  3.53 ± 0.065 kcal/mol
41. SAGGSAGGSAGDVEVRFEVKFTPDGTLIIKAEIRLPDIPDVTIRVEAVILPNGEILVKVSSAGGSAGGSAGG [r11_483_TrMRF]  3.68 ± 0.11 kcal/mol
42. SAGGKIEELAKELAKKLNIEKVEVEEKDGKLVVKLVVKDKKTNKYYRITIEVDDDGNIKISIEPLPPSAGGS [r16_433_TrROS_Hall]  3.91 ± 0.2 kcal/mol

Test: folding stability dG unfold from chymotrypsin proteolysis; higher = more stable
In short: as §1

In order of falling “folding stability dG unfold” value:
1. SAGGKIEELAKELAKKLNIEKVEVEEKDGKLVVKLVVKDKKTNKYYRITIEVDDDGNIKISIEPLPPSAGGS [r16_433_TrROS_Hall]  5.17 ± 0.12 kcal/mol
2. SAGGKKPKIEVKIEFDEETGKLRIEIRTEDGKLIAEKEIEIDGVLFKVKVIVKDGKLVIEIEAFPKKSAGGS [r16_631_TrROS_Hall]  3.99 ± 0.12 kcal/mol
3. SAGGKKTVKIEIVLPKEELEELLKKLLEEAKKKGLKVEVKVELKEVEVEVNGKKKKVLVLKVEIKVEPSAGG [r13_974_TrROS_Hall]  3.76 ± 0.14 kcal/mol
4. SAGAKEITAEELAEIVREFAAALPPDVKEPVTVEITVPLEDGRVLVFKVTVERSPDGVKATVEVSPGASAGG [r19_220_TrMRF]  3.43 ± 0.037 kcal/mol
5. SAKEELYIIEIKVYVDGKEVKTITKVITVPEEKLEEKLKELLKKLAEELGLEIKKVEVKIKKLSLEELKSAG [r14_104_TrROS_Hall]  3.09 ± 0.14 kcal/mol
6. SAGGSAGGSAGGMPPFVELEFVGEFKVNGEKVLVLRLPDGSIRIVNLKTGETITVPASLLSAGGSAGGSAGG [r7_28_JUSTAS]  2.67 ± 0.038 kcal/mol
7. SAGGSAGDKVVTVTATFTTTDPNGNEITIIAPITFLNGEGTAVIDAKAFNPTGELIAEATITVPIGSAGGSA [r15_967_TrMRF]  2.34 ± 0.028 kcal/mol
8. KMEIKIEVEKVKDEETGEEYIEVKIVVKKENVEEALEKVKKILEEEFNYEIVDVKVEKKDDYVVITVKIRLS [r1_337_TrROS_Hall]  2.21 ± 0.41 kcal/mol
9. SAGGSAGGSAGGSKKKKIIIVVPKEELSEEQIKALKDLGYEIEIVEVEKKPVKVKKKKKSAGGSAGGSAGGS [r4_294_TrROS_Hall]  2.08 ± 0.12 kcal/mol
10. SAGGSAGGSAMTTTSTSTYPDSITTTTTTTVDGTYIITTTTFYPATGTTTTTTTTLPPSLTSAGGSAGGSAG [r3_316_JUSTAS]  1.987 ± 0.011 kcal/mol
11. SAPPTVKINWERVRRNGKRYYMIRVEITHPNNGKEREHTFMYDDPEDFLDNLLKLPNIDRVEIEDIYPMSAG [r14_464_TrROS]  1.8 ± 0.2 kcal/mol
12. SMIEELSDEEKVALAKELAEEIKKAREGGKPEEIPELIKRLKEVLEAASPPVQEEVLALIKEIKIPPKELSA [r9_182_JUSTAS]  1.7 ± 0.04 kcal/mol
13. SAGGMIVLEFPDGKIVFVEPVSEFTTPDGKKVRLVKVIVTDPLTGKSTIIEREVLPGGGVKEKVTPESAGGS [r16_651_JUSTAS]  1.32 ± 0.043 kcal/mol
14. SAGGSAGGSAGGRLVVFEVKKDELNITGPGEARVVSVEELPGDRVRVVVEVPEGAVPGLASAGGSAGGSAGG [r17_48_TrMRF]  1.27 ± 0.066 kcal/mol
15. SAGGPEELELTLSIDYPDLTPEQAAEEARRLLEGLGFEVKEIPVTVEPGPGKVTVRARVTVLPPEERSAGGS [r16_287_TrMRF]  1.21 ± 0.05 kcal/mol
16. SAGGSAIIIPIKSAEEILDQLENNPPGRPIHVWAPDGYWIKIEIDPGKGPKIKITEIYPMPPEEAKSAGGSA [r15_577_TrROS]  0.984 ± 0.062 kcal/mol
17. SAGGSAPPPGSTQVIVVEKRDAPPEEAAQEIADEIKEKYPNTSVEVQEEEVPPGEPVVRVTVYIPPSAGGSA [r15_916_JUSTAS]  0.945 ± 0.15 kcal/mol
18. SSPALDEKYTAKVDAKVTSPEGKPLATFTIDVLTEEEAKKKIEEFVKELAEKLGRPDLPVTISNITIERVSA [r9_376_JUSTAS]  0.921 ± 0.16 kcal/mol
19. SAGGSAGGSAGSPDRPRRVEPVPVVTYKDPDLGKEFTSPEEIEKTKEELEKKGLSVEVSASAGGSAGGSAGG [r17_289_JUSTAS]  0.482 ± 0.1 kcal/mol
20. SAGGSAGGSMIKRTVTVTVYFPGKPLSIPVEYTSEEELPVVAEEAVKPIIEKVPEYKIPEPKLSAGGSAGGS [r12_230_JUSTAS]  0.292 ± 0.2 kcal/mol
21. SMEEAIEEAIKKNEEAIAAGGGPVKVELEVPGYRIDLTFSPNGLKITNIEEKNSPDGIPSVKSTSDVPPPSA [r9_308_JUSTAS]  -0.503 ± 0.11 kcal/mol
